Source: article PMC12511343, “Structural insights into Cir-mediated killing by the antimicrobial protein Microcin V” (Communications Biology, 2025)

B1: 4-Met substituted E. coli Cir (colicin Ia receptor), the paper's wildtype (WT) Cir [E. coli] / Microcin V (MccV), mature, wildtype [modified: biotinylated (EZ-Link Sulfo-NHS-LC kit) for BLI and ELISA; not labelled for … (parent)
chain 1: VDDDGETMVVTASSVEQNLKDAPASISVITQEDLQRKPVQNLKDVLKEVPGVQLTNEGDNRKGVSIRGLDSSYTLILVDGKRVNSRNAVFRHNDFDLNWIPVDSIERIEVVRGPMSSLYGSDALGGVVNIITKKIGQKWSGTVTVDTTIQEHRDRGDTYNGQFFTSGPLIDGVLGMKAYGSLAKREKDDPQNSTTTDTGETPRIEGFSSRDGNVEFAWTPNQNHDFTAGYGFDRQDRDSDSLDKNRLERQNYSVSHNGRWDYGTSELKYYGEKVENKNPGNSSPITSESNTVDGKYTLPLTAINQFLTVGGEMRHDKMSDAVNLTGGTSSKTSASQYALFVEDEWRIFEPLALTTGVRMDDHETYGEHWSPRAYLVYNATDTVTVKGGWATAFKAPSLLQLSPDWTSNSCRGACKIVGSPDLKPETSESWELGLYYMGEEGWLEGVESSVTVFRNDVKDRISISRTSDVNAAPGYQNFVGFETGANGRRIPVFSYYNVNKARIQGVETELKIPFNDEWKLSINYTYNDGRDVSNGENKPLSDLPFHTANGTLDWKPLALEDWSMYMSGHYTGQKRADSATAKTPGGYTIWNTGAAWQVTKDVKLRAGVLNLGDKDLSRDDYSYNEDGRRYFMAVDYRF
chain 2: ASGRDIAMAIGTLSGQFVAGGIGAAAGGVAGGAIYDYASTHKPNPAMSPSGLGGTIKQKPEGIPSEAWNYAAGRLCNWSPNNLSDVCL

Variants of: B1
Test: BLI
Conditions: for Kd: 100 nM biotinylated MccV loaded onto streptavidin-coated sensors, probed with dilutions of Cir, PBS-T; for response: raw shift at end of association (600 s), 100 nM biotinylated MccV on sensor, not baseline-subtracted, read off a plot
[1] = with 4-Met substituted E. coli Cir (colicin Ia receptor)

Variant	Kd (with Microcin V (MccV)) [µM]	Kd [1] [µM]	response (with 4-Met substituted E. coli Cir (colicin Ia receptor), 5 µM WT Cir, PBST trace at about 1.65 nm) [nm]	response (with 4-Met substituted E. coli Cir (colicin Ia receptor), 5 µM WT Cir, PBST trace at about 1.85 nm) [nm]	response (with Microcin V (MccV), 5 µM Cir, PBST trace at about 1.5 nm) [nm]
chain 1 R411E R465E	1.58				
chain 2 ASGRDIAMAIGTLSGQFVAGGIGAAAGGVAGGAIYDYASTHKPNPAMSPSGLGGTIKQKPEGIPSEAWNYAAGRLCNWSPNNLSAVCL [chain 2 D85A]		0.888	3.3		
chain 2 ASGRDIAMAIGTLSGQFVAGGIGAAAGGVAGGAIYDYASTHKPNPAMSPSGLGGTIKQKPEGIPSEAWNYAAGRLCNWSPNNLSRVCL [chain 2 D85R]		0.692		3.2	
chain 1 C410A	0.552				4.5
